Laboratory results from IntAct's records for PubMed 11801603.

B1: Baculoviral IAP repeat-containing protein 7 (Homo sapiens), Q96CA5 (parent)
chain: MGPKDSAKCLHRGPQPSHWAAGDGPTQERCGPRSLGSPVLGLDTCRAWDHVDGQILGQLRPLTEEEEEEGAGATLSRGPAFPGMGSEELRLASFYDWPLTAEVPPELLAAAGFFHTGHQDKVRCFFCYGGLQSWKRGDDPWTEHAKWFPSCQFLLRSKGRDFVHSVQETHSQLLGSWDPWEEPEDAAPVAPSVPASGYPELPTPRREVQSESAQEPGGVSPAEAQRAWWVLEPPGARDVEAQLRRLQEERTCKVCLDRAVSIVFVPCGHLVCAECAPGLQLCPICRAPVRSRVRTFLS
B2: Baculoviral IAP repeat-containing protein 7 (Homo sapiens), Q96CA5 (parent)
chain: B1 chain
partner: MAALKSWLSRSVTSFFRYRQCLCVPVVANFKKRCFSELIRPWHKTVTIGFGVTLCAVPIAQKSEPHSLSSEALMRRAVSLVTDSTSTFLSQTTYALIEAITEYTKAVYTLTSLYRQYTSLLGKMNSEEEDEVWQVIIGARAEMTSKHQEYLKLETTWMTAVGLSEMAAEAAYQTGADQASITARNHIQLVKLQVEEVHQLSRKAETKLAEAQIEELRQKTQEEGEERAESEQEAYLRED

Variants of: B1
Conditions: with casp9_human CASP9, P55211
Sequence of casp9_human CASP9, P55211 (P55211 whole entry): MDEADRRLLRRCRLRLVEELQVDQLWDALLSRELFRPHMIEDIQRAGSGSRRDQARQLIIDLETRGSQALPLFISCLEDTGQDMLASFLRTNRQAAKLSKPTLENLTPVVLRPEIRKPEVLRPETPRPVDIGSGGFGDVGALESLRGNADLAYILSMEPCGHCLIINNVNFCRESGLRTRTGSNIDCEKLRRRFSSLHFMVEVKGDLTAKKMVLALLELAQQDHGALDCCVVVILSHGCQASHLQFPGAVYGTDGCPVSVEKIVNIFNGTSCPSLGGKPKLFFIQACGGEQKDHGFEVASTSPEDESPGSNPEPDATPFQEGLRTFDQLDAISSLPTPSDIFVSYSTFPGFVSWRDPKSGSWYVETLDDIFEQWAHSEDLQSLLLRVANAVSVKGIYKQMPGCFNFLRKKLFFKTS

Question: Which “effect of a mutation on the interaction” value does the source give for MGPKDSAKCLHRGPQPSHWAAGDGPTQERCGPRSLGSPVLGLDTCRAWDHVDGQILGQLRPLTEEEEEEGAGATLSRGPAFPGMGSEELRLASFYDWPLTAEVPPELLAAAGFFHTGHQDKVRCFFCYGGLQSWKRGADPWTEHAKWFPSCQFLLRSKGRDFVHSVQETHSQLLGSWDPWEEPEDAAPVAPSVPASGYPELPTPRREVQSESAQEPGGVSPAEAQRAWWVLEPPGARDVEAQLRRLQEERTCKVCLDRAVSIVFVPCGHLVCAECAPGLQLCPICRAPVRSRVRTFLS [D138A] here?
Answer: decreasing interaction

Variants of: B2
Conditions: with dbloh_human DIABLO

Question: Which “effect of a mutation on the interaction” value does the source give for MGPKDSAKCLHRGPQPSHWAAGDGPTQERCGPRSLGSPVLGLDTCRAWDHVDGQILGQLRPLTEEEEEEGAGATLSRGPAFPGMGSEELRLASFYDWPLTAEVPPELLAAAGFFHTGHQDKVRCFFCYGGLQSWKRGADPWTEHAKWFPSCQFLLRSKGRDFVHSVQETHSQLLGSWDPWEEPEDAAPVAPSVPASGYPELPTPRREVQSESAQEPGGVSPAEAQRAWWVLEPPGARDVEAQLRRLQEERTCKVCLDRAVSIVFVPCGHLVCAECAPGLQLCPICRAPVRSRVRTFLS [D138A] here?
Answer: decreasing interaction

Question: For MGPKDSAKCLHRGPQPSHWAAGDGPTQERCGPRSLGSPVLGLDTCRAWDHVDGQILGQLRPLTEEEEEEGAGATLSRGPAFPGMGSEELRLASFYDWPLTAEVPPELLAAAGFFHTGHQAKVRCFFCYGGLQSWKRGDDPWTEHAKWFPSCQFLLRSKGRDFVHSVQETHSQLLGSWDPWEEPEDAAPVAPSVPASGYPELPTPRREVQSESAQEPGGVSPAEAQRAWWVLEPPGARDVEAQLRRLQEERTCKVCLDRAVSIVFVPCGHLVCAECAPGLQLCPICRAPVRSRVRTFLS [D120A], which “effect of a mutation on the interaction” value is on record?
Answer: decreasing interaction
